# Results published in patent US20120095193A1 (published 2012).
# B1: BPC1623 (antibody, human IgG1, kappa, V domains shown)
# VH: EVKLEESGGGLVQPGGSMKLSCTASGFTFSDAWMDWVRQSPEKGLEWVAEIRHKANDHAIFYDESVKGRFTISRDDSKNIVYLQMNSLRPEDTGIYYCTSPFAYWGQGTLVTVSS
# VL: DIVMTQSQKFMSVTVGDRVSITCKASQSVGTTIVWYQQKPGQSPKLLIYSASNRHTGVPDRFTGSGSGTDFILTINNVQSEDLADYFCQQYTSYPFTFGSGTKLEIKR
# notes: Chimeric: murine variable domains on human gamma 1 and kappa constant regions; also called 12F4 Chimera; Chimeric 12F4.1H7
# B2: BPC1622 (antibody, human IgG1, kappa, V domains shown)
# VH: EVKLEESGGGLVQPGGSMKLSCAASGFTSSDAWMDWVRQSPEKGLEWVAEIRNKANNHARHYAESVKGRFTISRDDSKSSVYLQMNSLRAEDSGIYYCTRTYYYGSSYGYCDVWGTGTLVTVSS
# VL: DIQMTQSPASLSASVGETVTITCRTSENIYSYLAWYQQKQGKSPQLLVYNAKTLAEGVPSRFSGSGSGTQFSLKINSLQPEDFGSYSCQHHYGTPWTFGGGTKLEIKR
# notes: Chimeric: murine variable domains on human gamma 1 and kappa constant regions; also called 7B4 Chimera; Chimeric 7B4.1E11
# B3: 2D3.1D4 (antibody, V domains shown)
# VH: EVKLEESGGGLVQPGGSMKLSCAASGITFSDAWMDWVRQSPEKGLEWVADIRNTANNHATFYAESVKGRFTISRDDSKSTVYLQMNTLRPEDTGIYYCTSPFAYWGQGTLVTVSA
# VL: DIVMTQSQKFMSTTVGDRVSITCKASQNVGTAVVWFQQKPGQSPKLLIYSASNRYTRVPDRFTGSGSGTDFTLTISNVQSEDLADYFCQQYVNYPFTFGSGTKLEIKR
# notes: Murine monoclonal antibody from a hybridoma
# B4: 5F10.1H6 (antibody, V domains shown)
# VH: EVKLEESGGGLVQPGGSMKLSCAASGFTFSDAWMDWVRQSPEKGLEWVAEIRHKANDHAIFYDESVKGRFTISRDDSKSIVYLQMNSLRPEDTGIYYCTSPFAYWGQGTLVTVSA
# VL: DIVMTQSQRFMSVTVGDRVSITCKASQSVGTTIVWYQQKPGQSPKLLIYSASTRYTGVPDRFTGGGSGTDFILTINNVQSEDLADYFCQQYSSYPFTFGSGTKLEIKR
# notes: as for B3
# B5: 3A12.1D7 (antibody, V domains shown)
# VH: EVKFEESGGGLVQPGGSMKLSCAASGFIFSDAWMDWVRQSPEKGLEWVAEIRHKANDYAIFYDESVKGRFTISRDDSKSIVYLQMNNLRPEDTGIYYCTSPFAYWGQGTLVTVSA
# VL: DIVMTQSQKFMSVTVGDRVSITCKASQSVGTTIVWYQQKPGQSPKLLIYSASNRHTGVPDRFTGSGSGTDFILTISNVQSEDLADYFCQQYSSYPFTFGSGTKLEIKR
# notes: as for B3
# Experiments:
# [1] = molecular target: T1, human ADAMTS5 (human, UniProt Q9UNA0 262-622, limits assumed); test: Octet QK, purified mAb
# T1 construct: Octet and ELISA used 'recombinant human ADAMTS5'; also called recombinant human ADAMTS5; ADAMTS5 (R&D Systems 2198-AD)
# T1 sequence: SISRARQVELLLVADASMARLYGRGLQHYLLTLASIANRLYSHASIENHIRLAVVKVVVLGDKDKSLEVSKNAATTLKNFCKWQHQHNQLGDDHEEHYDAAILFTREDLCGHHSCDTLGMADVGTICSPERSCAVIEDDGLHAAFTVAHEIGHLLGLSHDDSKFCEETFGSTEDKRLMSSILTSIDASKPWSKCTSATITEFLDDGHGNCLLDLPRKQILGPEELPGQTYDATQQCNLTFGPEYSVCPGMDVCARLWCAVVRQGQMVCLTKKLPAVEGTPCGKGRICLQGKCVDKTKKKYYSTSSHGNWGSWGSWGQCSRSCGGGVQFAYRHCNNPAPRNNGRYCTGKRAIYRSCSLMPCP
# [2] = molecular target: T1, human ADAMTS5; test: Biacore, mAb down, no avidity
# [3] = molecular target: T1, human ADAMTS5; test: Octet QK, antigen down, incl avidity
# [4] = molecular target: T1, human ADAMTS5; test: Biacore, purified mAb captured on anti-human IgG, ADAMTS5 (R&D 2198-AD) at 64 nM, 1:1 fit
# Description: (§1) Anti-human IgG (Biacore™, BR-1008-39) was immobilized on a CM5 chip by primary amine coupling. This surface was then used to capture the humanized antibodies, ADAMTS5 (R&D Systems 2198-AD) was then passed over the captured antibody at a single concentration of 64 nM, regeneration was carried out using 100 mM phosphoric acid followed by 3M MgCl₂. The binding curves were double referenced with buffer injection (i.e. 0 nM) and the data was fitted to the T100 analysis software using the 1:1 model. The run was carried out at 25° C., using HBS-EP as the running buffer. All antibodies were captured from tissue culture supernatants unless specified.
# [5] = molecular target: T1, human ADAMTS5; test: Biacore, mAb from culture supernatant captured on anti-human IgG, ADAMTS5 (R&D 2198-AD) at 64 nM, 1:1 fit
# Description: as §1
# [6] = molecular target: T1, human ADAMTS5; test: cell-based or functional assay
# [7] = molecular target: T1, human ADAMTS5; test: Octet QK, purified murine mAb
# [8] = molecular target: Human MMP3 (human, UniProt P08254 18-477, limits assumed); test: celTRF and Octet QK cross-reactivity
# Chain of Human MMP3 (P08254 18-477 limits assumed): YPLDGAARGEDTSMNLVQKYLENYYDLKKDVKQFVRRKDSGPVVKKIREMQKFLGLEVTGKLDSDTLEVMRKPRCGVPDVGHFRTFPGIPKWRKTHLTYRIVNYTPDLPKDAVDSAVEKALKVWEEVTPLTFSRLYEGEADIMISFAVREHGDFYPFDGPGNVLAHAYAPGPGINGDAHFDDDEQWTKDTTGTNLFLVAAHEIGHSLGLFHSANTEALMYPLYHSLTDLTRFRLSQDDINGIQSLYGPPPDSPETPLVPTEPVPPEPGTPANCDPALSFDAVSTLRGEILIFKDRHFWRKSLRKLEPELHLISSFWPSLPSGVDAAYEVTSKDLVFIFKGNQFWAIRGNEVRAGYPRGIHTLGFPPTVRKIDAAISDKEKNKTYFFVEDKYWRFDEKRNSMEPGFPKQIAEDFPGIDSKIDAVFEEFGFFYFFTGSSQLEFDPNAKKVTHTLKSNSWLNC
# [9] = molecular target: Human MMP9 (human, UniProt P14780 20-707, limits assumed); test: celTRF and Octet QK cross-reactivity
# Chain of Human MMP9 (P14780 20-707 limits assumed): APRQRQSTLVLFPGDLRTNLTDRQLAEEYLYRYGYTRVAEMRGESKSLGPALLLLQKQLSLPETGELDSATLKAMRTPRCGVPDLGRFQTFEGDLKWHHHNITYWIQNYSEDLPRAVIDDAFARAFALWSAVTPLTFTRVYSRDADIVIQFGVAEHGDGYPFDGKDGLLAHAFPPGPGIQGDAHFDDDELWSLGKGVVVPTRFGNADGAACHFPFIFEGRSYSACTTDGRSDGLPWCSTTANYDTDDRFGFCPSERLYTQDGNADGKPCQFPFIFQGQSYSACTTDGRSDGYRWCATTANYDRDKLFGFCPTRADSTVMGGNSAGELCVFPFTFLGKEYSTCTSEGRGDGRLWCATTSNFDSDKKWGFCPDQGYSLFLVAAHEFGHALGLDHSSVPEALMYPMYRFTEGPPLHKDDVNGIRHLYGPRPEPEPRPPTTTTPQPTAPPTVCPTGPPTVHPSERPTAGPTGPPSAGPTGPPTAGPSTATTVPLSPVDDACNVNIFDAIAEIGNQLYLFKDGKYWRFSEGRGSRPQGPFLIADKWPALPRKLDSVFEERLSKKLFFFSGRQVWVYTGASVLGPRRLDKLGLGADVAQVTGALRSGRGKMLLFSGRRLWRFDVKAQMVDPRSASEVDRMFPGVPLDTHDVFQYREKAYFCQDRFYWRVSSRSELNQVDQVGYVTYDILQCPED
# [10] = molecular target: Human MMP13 (human, UniProt P45452 20-471, limits assumed); test: celTRF and Octet QK cross-reactivity
# [11] = molecular target: T2, Human ADAMTS1 (human, UniProt Q9UHI8 253-967, limits assumed); test: celTRF and Octet QK cross-reactivity
# T2 sequence (looked up): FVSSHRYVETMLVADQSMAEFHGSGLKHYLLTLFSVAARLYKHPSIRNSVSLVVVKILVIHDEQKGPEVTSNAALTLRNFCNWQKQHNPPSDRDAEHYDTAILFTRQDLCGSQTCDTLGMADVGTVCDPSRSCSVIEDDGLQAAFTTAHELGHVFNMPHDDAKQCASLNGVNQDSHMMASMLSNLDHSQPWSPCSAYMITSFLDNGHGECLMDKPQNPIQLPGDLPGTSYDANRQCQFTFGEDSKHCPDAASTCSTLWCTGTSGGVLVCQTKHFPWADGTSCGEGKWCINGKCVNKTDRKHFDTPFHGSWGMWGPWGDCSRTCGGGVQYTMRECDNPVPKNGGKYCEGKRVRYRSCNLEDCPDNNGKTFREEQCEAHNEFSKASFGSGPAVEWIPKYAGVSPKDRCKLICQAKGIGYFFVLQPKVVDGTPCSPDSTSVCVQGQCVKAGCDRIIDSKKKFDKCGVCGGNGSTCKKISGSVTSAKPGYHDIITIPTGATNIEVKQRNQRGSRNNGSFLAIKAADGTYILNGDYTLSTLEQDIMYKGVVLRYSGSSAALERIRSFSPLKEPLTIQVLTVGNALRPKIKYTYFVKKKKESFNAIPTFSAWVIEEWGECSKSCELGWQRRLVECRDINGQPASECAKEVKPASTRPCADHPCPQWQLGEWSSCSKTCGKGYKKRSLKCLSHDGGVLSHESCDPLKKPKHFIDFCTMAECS
# [12] = molecular target: T3, Human ADAMTS4 (human, UniProt O75173 213-685, limits assumed); test: celTRF and Octet QK cross-reactivity
# T3 construct: also called aggrecanase-1
# T3 sequence: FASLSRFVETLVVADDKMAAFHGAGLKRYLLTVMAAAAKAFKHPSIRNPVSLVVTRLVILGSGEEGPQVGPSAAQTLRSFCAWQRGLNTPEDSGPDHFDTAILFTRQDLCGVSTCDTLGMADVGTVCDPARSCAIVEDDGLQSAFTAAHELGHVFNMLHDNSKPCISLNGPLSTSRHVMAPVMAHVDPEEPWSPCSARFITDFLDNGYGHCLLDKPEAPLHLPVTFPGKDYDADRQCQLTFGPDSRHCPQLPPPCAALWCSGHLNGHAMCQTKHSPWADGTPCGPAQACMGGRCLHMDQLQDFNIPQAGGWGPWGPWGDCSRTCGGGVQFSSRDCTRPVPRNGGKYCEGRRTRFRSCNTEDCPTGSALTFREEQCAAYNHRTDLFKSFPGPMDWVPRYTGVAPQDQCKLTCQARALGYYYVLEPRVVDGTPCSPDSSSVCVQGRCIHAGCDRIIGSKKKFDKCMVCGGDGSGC
# [13] = molecular target: T4, Human ADAMTS13 (human, UniProt Q76LX8 75-685, limits assumed); test: celTRF and Octet QK cross-reactivity
# T4 sequence (looked up): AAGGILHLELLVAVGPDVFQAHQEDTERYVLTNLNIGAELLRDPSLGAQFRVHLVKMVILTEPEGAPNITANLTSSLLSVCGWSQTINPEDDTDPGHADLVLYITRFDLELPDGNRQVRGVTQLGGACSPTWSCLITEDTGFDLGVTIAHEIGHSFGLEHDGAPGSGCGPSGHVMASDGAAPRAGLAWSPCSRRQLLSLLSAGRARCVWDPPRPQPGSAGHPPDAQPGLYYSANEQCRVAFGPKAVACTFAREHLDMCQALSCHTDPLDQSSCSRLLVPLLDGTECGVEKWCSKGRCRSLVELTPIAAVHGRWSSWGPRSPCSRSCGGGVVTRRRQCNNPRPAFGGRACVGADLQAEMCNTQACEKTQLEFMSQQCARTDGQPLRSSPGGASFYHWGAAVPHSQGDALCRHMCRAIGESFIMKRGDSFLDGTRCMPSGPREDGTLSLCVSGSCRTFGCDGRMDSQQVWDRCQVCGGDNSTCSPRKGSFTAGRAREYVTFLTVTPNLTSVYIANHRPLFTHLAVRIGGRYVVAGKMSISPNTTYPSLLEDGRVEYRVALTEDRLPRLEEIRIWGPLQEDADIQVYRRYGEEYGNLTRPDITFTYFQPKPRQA
# [14] = molecular target: T5, Human MMP1 (human, UniProt P03956 20-469, limits assumed); test: celTRF and Octet QK cross-reactivity
# T5 sequence (looked up): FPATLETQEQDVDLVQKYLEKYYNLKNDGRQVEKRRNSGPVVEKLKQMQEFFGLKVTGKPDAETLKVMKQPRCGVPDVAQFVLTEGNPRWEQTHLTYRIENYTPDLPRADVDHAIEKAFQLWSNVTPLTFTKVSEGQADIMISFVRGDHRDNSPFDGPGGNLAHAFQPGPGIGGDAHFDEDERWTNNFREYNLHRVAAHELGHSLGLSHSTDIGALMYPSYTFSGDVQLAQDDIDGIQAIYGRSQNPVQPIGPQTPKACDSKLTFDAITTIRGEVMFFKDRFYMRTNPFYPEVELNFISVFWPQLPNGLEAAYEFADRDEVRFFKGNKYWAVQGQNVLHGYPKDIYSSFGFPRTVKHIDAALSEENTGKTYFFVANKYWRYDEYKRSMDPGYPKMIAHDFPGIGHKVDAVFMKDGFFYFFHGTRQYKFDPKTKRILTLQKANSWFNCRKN
Binder,Kd [1] [nM],Kd [2] [nM],Kd [3] [nM],Kd [4] [nM],koff [4] [s⁻¹],kon [4] [M⁻¹ s⁻¹],Kd [5] [nM],koff [5] [s⁻¹],kon [5] [M⁻¹ s⁻¹],Aggrecan Substrate Cleavage Neutralization IC50 [6] [nM],Kd [7] [nM],binding result [8],binding result [9],binding result [10],binding result [11],binding result [12],binding result [13],binding result [14]
B1,0.0799,0.051,0.0431,0.0727,4.7e-05,646000,0.0774,4.82e-05,623000,–,–,–,–,–,–,–,–,–
B2,0.345,0.473,0.26,1.21,0.00106,872000,1.12,0.0013,1.16e+06,–,–,–,–,–,–,–,–,–
B3,–,–,–,–,–,–,–,–,–,0.031,0.0862,no binding,no binding,no binding,no binding,no binding,no binding,no binding
B4,–,–,–,–,–,–,–,–,–,0.05,0.126,no binding,no binding,no binding,no binding,no binding,no binding,no binding
B5,–,–,–,–,–,–,–,–,–,0.769,0.0824,no binding,no binding,no binding,no binding,no binding,no binding,no binding
